US5869336A, “Recombinant enzymatically active calpain expressed in a baculovirus system” (Cephalon, Inc., priority 1997, dated 1999)

System: native human calpain I
Assay: Calcium-dependent protease activity (Succ-Leu-Tyr-AMC), native calpain I
Type: biochemical
Settings: 1 mM Succ-Leu-Tyr-AMC, 5 mM CaCl2; FIG. 5a
Procedure: Sf21 cells were again seeded in 24 well plates at 1.5×10^5 cells/cm^2 and infected with either wild-type virus, coinfected with both AcNPV-hCANP30-5 and AcNPV-hCANPI80-5 (MOI of 5 for each virus), or infected with AcNPV-hCANPI-2-5 (MOI=5.7). The intracellular proteins were harvested at 40 hours after infection with 100 μl/well of the following lysis buffer: 50 mM Tris-HCl, pH 7.5, 50 mM NaCl, 1 mM EDTA, 1 mM EGTA, 5 mM β-mercaptoethanol, 0.1% Triton-100, followed by a 10 minutes centrifugation at 14,000×g at 4° C. to pellet the nuclei and some membranes. The in vitro enzyme activity of 20 μl of each extract (12.5-20 μg of total protein) was measured using the synthetic peptide substrate succinyl-leucine-tyrosine-aminomethyl coumarin (Succ-Leu-Tyr-AMC) at a 1 mM concentration with and without the addition of 5 mM CaCl2 following the procedure of Sasaki et al., J. Biol. Chem., 259:12489-12494 (1984), incorporated herein by reference. The activity obtained was compared with the enzyme activity of 2 μg of partially-purified native human calpain I produced according to the method of Siman et al., supra.
The activity in the presence of calcium was also measured with the addition of 12.5 μM calpain inhibitor I following the procedure disclosed in Sasaki et al., supra. The results are depicted in FIGS. 5a-d. In FIGS. 5a-d, open circles represent activity without calcium present. […]

B1: native human calpain I: partially-purified native human calpain I (protein, UniProt P07384 2-714; P04632 1-268, looked up)
Calpain-1 catalytic subunit: SEEIITPVYCTGVSAQVQKQRARELGLGRHENAIKYLGQDYEQLRVRCLQSGTLFRDEAFPPVPQSLGYKDLGPNSSKTYGIKWKRPTELLSNPQFIVDGATRTDICQGALGDCWLLAAIASLTLNDTLLHRVVPHGQSFQNGYAGIFHFQLWQFGEWVDVVVDDLLPIKDGKLVFVHSAEGNEFWSALLEKAYAKVNGSYEALSGGSTSEGFEDFTGGVTEWYELRKAPSDLYQIILKALERGSLLGCSIDISSVLDMEAITFKKLVKGHAYSVTGAKQVNYRGQVVSLIRMRNPWGEVEWTGAWSDSSSEWNNVDPYERDQLRVKMEDGEFWMSFRDFMREFTRLEICNLTPDALKSRTIRKWNTTLYEGTWRRGSTAGGCRNYPATFWVNPQFKIRLDETDDPDDYGDRESGCSFVLALMQKHRRRERRFGRDMETIGFAVYEVPPELVGQPAVHLKRDFFLANASRARSEQFINLREVSTRFRLPPGEYVVVPSTFEPNKEGDFVLRFFSEKSAGTVELDDQIQANLPDEQVLSEEEIDENFKALFRQLAGEDMEISVKELRTILNRIISKHKDLRTKGFSLESCRSMVNLMDRDGNGKLGLVEFNILWNRIRNYLSIFRKFDLDKSGSMSAYEMRMAIESAGFKLNKKLYELIITRYSEPDLAVDFDNFVCCLVRLETMFRFFKTLDTDLDGVVTFDLFKWLQLTMFA
Calpain small subunit 1: MFLVNSFLKGGGGGGGGGGGLGGGLGNVLGGLISGAGGGGGGGGGGGGGGGGGGGGTAMRILGGVISAISEAAAQYNPEPPPPRTHYSNIEANESEEVRQFRRLFAQLAGDDMEVSATELMNILNKVVTRHPDLKTDGFGIDTCRSMVAVMDSDTTGKLGFEEFKYLWNNIKRWQAIYKQFDTDRSGTICSSELPGAFEAAGFHLNEHLYNMIIRRYSDESGNMDFDNFISCLVRLDAMFRAFKSLDKDGTGQIQVNIQEWLQLTMYS
  calcium-dependent substrate hydrolysis: calcium-dependent increase in substrate hydrolysis
